These results are taken from the supplement of paper PMC10598134.

This series is described as follows: collision cross section of modified peptide (TIMS, N2, iRT-aligned); higher = larger / more extended gas-phase ion. The method, then: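 1/K0 was aligned run-wise to spiked iRT peptides and converted to CCS in N2 (Mason-Schamp). Values are the mean of 1-3 technical replicates for the most abundant feature at each charge state.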
Setting [1] is: charge state: 2, modification: Malonyl.
The mark [2] stands for this setting: charge state: 2, modification: Dimethyl (K).
The mark [3] stands for this setting: charge state: 3, modification: Dimethyl (K).
Where [4] appears, read: charge state: 2, modification: GlyGly (K).
The mark [5] stands for this setting: charge state: 3, modification: GlyGly (K).
Where [6] appears, read: charge state: 2, modification: Formyl.
The mark [7] stands for this setting: charge state: 2, modification: Methyl (R).
Where [8] appears, read: charge state: 3, modification: Methyl (R).
The mark [9] stands for this setting: charge state: 2, modification: HexNAc (ST).
Where [10] appears, read: charge state: 2, modification: Acetyl (K).
[11] abbreviates: charge state: 3, modification: Acetyl (K).
Where [12] appears, read: charge state: 3, modification: Trimethyl (K).
Where [13] appears, read: charge state: 3, modification: Citrullination (R).
Where [14] appears, read: charge state: 3, modification: Hydroxyproline.
Where [15] appears, read: charge state: 2, modification: Biotin.
The mark [16] stands for this setting: charge state: 3, modification: Biotin.
The mark [17] stands for this setting: charge state: 2, modification: Hydroxyproline.
Where [18] appears, read: charge state: 2, modification: Succinyl.
Setting [19] is: charge state: 3, modification: Succinyl.
Where [20] appears, read: charge state: 2, modification: Methyl (K).
Setting [21] is: charge state: 3, modification: Methyl (K).
Where [22] appears, read: charge state: 2, modification: Crotonyl.
The mark [23] stands for this setting: charge state: 3, modification: Crotonyl.
Where [24] appears, read: charge state: 2, modification: Butyryl.

± gives the standard deviation.

Regarding “DYSAPVNFISAGLKK [_DYSAPVNFISAGLK(Malonyl)K_]”, the collision cross section by setting is: under setting [1], 442.5 ± 1.7 Å²; (charge state: 3, modification: Malonyl) 530.16 Å².
“STGLELETPSLVPVKK [_STGLELETPSLVPVK(Dimethyl (K))K_]”: the collision cross section reads like this: under setting [2], 456.56 ± 2.3 Å²; under setting [3], 515.08 ± 1.7 Å².
For the substance “GFALVGVGSEASSKK [_GFALVGVGSEASSK(GlyGly (K))K_]”, the collision cross section reads like this: under setting [4], 452.76 ± 1.4 Å²; under setting [5], 507.31 ± 14 Å².
As for VGTASVLQPVKK [_VGTASVLQPVK(Formyl)K_], the collision cross section under setting [6] is 375.49 ± 0.89 Å².
GRGYFEHR [_GR(Methyl (R))GYFEHR_]: the collision cross section turned out to be 342.05 Å² under setting [7] and 410.57 ± 5.9 Å² under setting [8].
With “DHSKPISNPSDNK [_DHS(HexNAc (ST))KPISNPSDNK_]”, the collision cross section under setting [9] is listed as 406.95 ± 0.13 Å² and the collision cross section (charge state: 3, modification: HexNAc (ST)) is recorded as 479.5 ± 0.17 Å².
With “GADFLVTEVENGGSLGSKK [_GADFLVTEVENGGSLGSK(Acetyl (K))K_]”, the collision cross section reads like this: under setting [10], 465.51 Å²; under setting [11], 541.97 Å².
“IHVQSSSDSSDEPAEKR [_IHVQSSSDSSDEPAEK(Trimethyl (K))R_]” returned a collision cross section under setting [12] of 528.1 ± 1.6 Å².
“FLQEFYQDDELGKK [_FLQEFYQDDELGK(Trimethyl (K))K_]”: the collision cross section is 464.1 ± 0.55 Å² (charge state: 2, modification: Trimethyl (K)) and 508.12 ± 1.8 Å² under setting [12].
The substance “HGGSGGRGVSVSSAR [_HGGSGGR(Citrullination (R))GVSVSSAR_]” displayed a collision cross section under setting [13] of 485.51 ± 3.7 Å².
As for “GIGRGTVQALHATGAR [_GIGR(Citrullination (R))GTVQALHATGAR_]”, the collision cross section by setting is: (charge state: 2, modification: Citrullination (R)) 453.22 ± 0.95 Å²; under setting [13], 491.89 ± 1.9 Å².
In turn, “GFPGAPGLPGLKGHR [_GFP(Hydroxyproline)GAPGLPGLKGHR_]” had a collision cross section under setting [14] of 478.5 ± 1.8 Å².
ITGKNQVTATK [_ITGK(Biotin)NQVTATK_]: the collision cross section under setting [15] is listed as 389.13 ± 1.7 Å².
The substance VNALKNLQVK [_VNALK(GlyGly (K))NLQVK_] gave a collision cross section under setting [4] of 383.13 ± 0.38 Å² and a collision cross section under setting [5] of 444.03 ± 1.9 Å².
Take “DNNNSNNRGSYNR [_DNNNSNNR(Citrullination (R))GSYNR_]”: under setting [13], the collision cross section amounted to 460.73 ± 2.9 Å².
Consider “DDSFLGKLGGTLAR [_DDSFLGK(Biotin)LGGTLAR_]”, for which the collision cross section amounted to 427.7 ± 0.62 Å² under setting [15] and 505.13 Å² under setting [16].
For “GEPGQGLRGLQGPPGK [_GEPGQGLRGLQGPP(Hydroxyproline)GK_]”, the collision cross section under setting [17] stood at 408.26 ± 1.5 Å² and the collision cross section under setting [14] is recorded as 445.73 ± 1.3 Å².
As for “TVSKVDDFLANEAK [_TVSK(Succinyl)VDDFLANEAK_]”, under setting [18], the collision cross section amounted to 425.01 ± 0.52 Å².
“AAQASDLEKIHLDEK [_AAQASDLEK(Dimethyl (K))IHLDEK_]”: the collision cross section under setting [3] is on record as 503.12 ± 0.75 Å².
Under setting [18], “DTPTSAGPNSFNKGK [_DTPTSAGPNSFNK(Succinyl)GK_]” came in with a collision cross section of 411.39 ± 1.1 Å².
For PPGFSPFR [_PP(Hydroxyproline)GFSPFR_], the collision cross section under setting [17] is on record as 331.47 ± 1.3 Å².
Consider “SDDESSQKDIK [_SDDESSQK(Gluratylation)DIK_]”, for which, for the setting “charge state: 2, modification: Glutarylation”, the collision cross section is 382.21 ± 1.1 Å².
On to “DDSFLGKLGGTLAR [_DDSFLGK(Succinyl)LGGTLAR_]”, for which the collision cross section is, setting by setting: under setting [18], 412.99 ± 0.37 Å²; under setting [19], 489.32 ± 3.3 Å².
Take YVHADAPTNK [_Y(Nitro (Y))VHADAPTNK_]: the collision cross section runs as follows: (charge state: 2, modification: Nitro (Y)) 352.73 ± 0.72 Å²; (charge state: 3, modification: Nitro (Y)) 417.54 ± 1.2 Å².
“STGLELETPSLVPVKK [_STGLELETPSLVPVK(hydroxyisobutyryl)K_]” returned a collision cross section (charge state: 2, modification: hydroxyisobutyryl) of 440.07 ± 0.82 Å² and a collision cross section (charge state: 3, modification: hydroxyisobutyryl) of 511.71 ± 25 Å².
Take “VNVEAPDVNLEGLGGKLK [_VNVEAPDVNLEGLGGK(Malonyl)LK_]”: under setting [1], the collision cross section is recorded as 463.09 ± 1.4 Å².
On to “AAQASDLEKIHLDEK [_AAQASDLEK(GlyGly (K))IHLDEK_]”, for which the collision cross section runs as follows: under setting [4], 469.33 ± 0.94 Å²; under setting [5], 508.49 ± 1.9 Å².
As to “AVPSSPAGSAARGR [_AVPSSPAGSAAR(Methyl (R))GR_]”, the collision cross section was 387.69 ± 1.4 Å² under setting [7] and 492.48 ± 1.5 Å² under setting [8].
As to “TEVLSPNSKVESK [_TEVLSPNSK(Succinyl)VESK_]”, the collision cross section runs as follows: under setting [18], 402.26 ± 0.79 Å²; under setting [19], 458.68 ± 13 Å².
With ASEALLKQLK [_ASEALLK(Methyl (K))QLK_], the collision cross section stood at 369.33 ± 0.7 Å² under setting [20] and 450.1 ± 3.1 Å² under setting [21].
On to DFDTALKHYDK [_DFDTALK(GlyGly (K))HYDK_], for which the collision cross section runs as follows: under setting [4], 400.17 ± 0.77 Å²; under setting [5], 467.02 ± 1.1 Å².
On to “SKHLQEQLNELK [_SK(Methyl (K))HLQEQLNELK_]”, for which the collision cross section by setting is: under setting [20], 411.32 ± 1.9 Å²; under setting [21], 492.52 ± 1.8 Å².
“ITESVAETAQTIK [_ITESVAET(HexNAc (ST))AQTIK_]” came in with a collision cross section under setting [9] of 422.03 ± 0.75 Å².
Under setting [5], “IVEKYGYTHLSAGELLR [_IVEK(GlyGly (K))YGYTHLSAGELLR_]” displayed a collision cross section of 548.84 ± 0.37 Å².
Turning to “STGLELETPSLVPVKK [_STGLELETPSLVPVK(Crotonyl)K_]”, the collision cross section was determined as 437.59 Å² under setting [22] and 521.61 Å² under setting [23].
The substance “LQEKVESAQSEQK [_LQEK(Butyryl)VESAQSEQK_]” registered a collision cross section under setting [24] of 419.43 ± 0.77 Å² and a collision cross section (charge state: 3, modification: Butyryl) of 504.21 ± 1.9 Å².
As for “LQAAYAGDKADDIQK [_LQAAYAGDK(Crotonyl)ADDIQK_]”, the collision cross section is recorded as 436.53 ± 0.29 Å² under setting [22] and 487.02 ± 2.8 Å² under setting [23].
For the substance ALASIDSKLNQAK [_ALASIDSK(Biotin)LNQAK_], the collision cross section came out at 417.14 ± 2.9 Å² under setting [15] and 481.19 Å² under setting [16].
Substance “DLSTVEALQNLKNLK [_DLSTVEALQNLK(Dimethyl (K))NLK_]” came in with a collision cross section under setting [2] of 476.15 ± 1.7 Å² and a collision cross section under setting [3] of 513.29 ± 0.57 Å².
RGATPPAPPRR [_R(Methyl (R))GATPPAPPRR_] had a collision cross section under setting [8] of 465.62 ± 0.37 Å².
APEYLHR [_APEY(Phospho (Y))LHR_] showed a collision cross section (charge state: 2, modification: Phospho (Y)) of 334.14 ± 1.5 Å².
For “IINEPTAAAIAYGLDKK [_IINEPTAAAIAYGLDK(Methyl (K))K_]”, the collision cross section reads like this: under setting [20], 488.76 ± 3.7 Å²; under setting [21], 550.89 ± 0.34 Å².
With “LQDVSGQLSSSKK [_LQDVSGQLSSSK(Acetyl (K))K_]”, the collision cross section reads like this: under setting [10], 396.87 ± 1.3 Å²; under setting [11], 461.64 ± 3.7 Å².
Consider “LQAAYAGDKADDIQK [_LQAAYAGDK(Formyl)ADDIQK_]”, for which, under setting [6], the collision cross section came to 428.24 ± 0.79 Å².
Take “GTISAPGKVVTAAAQAK [_GTISAPGK(GlyGly (K))VVTAAAQAK_]”: the collision cross section by setting is: under setting [4], 456.01 ± 1.6 Å²; under setting [5], 541.49 ± 0.36 Å².
The substance SPDEAYAIAKK [_SPDEAYAIAK(Malonyl)K_] showed a collision cross section under setting [1] of 371.15 ± 0.62 Å².
ASEALLKQLK [_ASEALLK(Butyryl)QLK_]: under setting [24], the collision cross section came to 379.45 ± 0.72 Å².
Consider “VSPASSVDSNIPSSQGYKK [_VSPASSVDSNIPSSQGYK(Dimethyl (K))K_]”, for which the collision cross section under setting [3] worked out at 536.37 ± 0.42 Å².
The substance “TFGKAAGPSLSHTSGGTQSK [_TFGK(Trimethyl (K))AAGPSLSHTSGGTQSK_]” showed a collision cross section under setting [12] of 559.57 ± 0.94 Å².
Under setting [15], ASDTSSETVFGKR [_ASDTSSETVFGK(Biotin)R_] showed a collision cross section of 406.15 Å².
In the case of “VPGVGLPGVYPGGVLPGAR [_VPGVGLPGVYPGGVLP(Hydroxyproline)GAR_]”, the collision cross section reads like this: under setting [17], 432.24 ± 0.28 Å²; under setting [14], 534.68 ± 3 Å².
With “GETASKLQSEISR [_GETASK(GlyGly (K))LQSEISR_]”, the collision cross section runs as follows: under setting [4], 415.57 ± 0.85 Å²; under setting [5], 455.84 ± 1.3 Å².
With “AAINQKLIETGER [_AAINQK(Acetyl (K))LIETGER_]”, under setting [10], the collision cross section stood at 403.07 ± 1 Å².
In the case of ALLQAKASGK [_ALLQAK(Formyl)ASGK_], the collision cross section under setting [6] amounted to 340.27 ± 0.87 Å².
In the case of ITASLCDLKSR [_ITASLCDLK(Acetyl (K))SR_], under setting [10], the collision cross section was determined as 383.24 ± 1.3 Å².
As for “GTITVSAQELKDNR [_GTITVSAQELK(Formyl)DNR_]”, the collision cross section reads like this: under setting [6], 413.69 ± 0.19 Å²; (charge state: 3, modification: Formyl) 471.67 ± 1.8 Å².
